B1: Der p 1: allergenic protein tested for IL-10 induction (protein, UniProt P08176 99-320, looked up)
Peptidase 1: TNACSINGNAPAEIDLRQMRTVTPIRMQGGCGSCWAFSGVAATESAYLAYRNQSLDLAEQELVDCASQHGCHGDTIPRGIEYIQHNGVVQESYYRYVAREQSCRRPNAQRFGISNYCQIYPPNVNKIREALAQTHSAIAVIIGIKDLDAFRHYDGRTIIQRDNGYQPNYHAVNIVGYSNAQGVDYWIVRNSWDTNWGDNGYGYFAANIDLMMIEEYPYVVIL
B2: Gal d 2: native allergen component from Phadia (Ovalbumin, Egg white) (protein, UniProt P01012 2-386, looked up)
Ovalbumin: GSIGAASMEFCFDVFKELKVHHANENIFYCPIAIMSALAMVYLGAKDSTRTQINKVVRFDKLPGFGDSIEAQCGTSVNVHSSLRDILNQITKPNDVYSFSLASRLYAEERYPILPEYLQCVKELYRGGLEPINFQTAADQARELINSWVESQTNGIIRNVLQPSSVDSQTAMVLVNAIVFKGLWEKAFKDEDTQAMPFRVTEQESKPVQMMYQIGLFRVASMASEKMKILELPFASGTMSMLVLLPDEVSGLEQLESIINFEKLTEWTSSNVMEERKIKVYLPRMKMEEKYNLTSVLMAMGITDVFSSSANLSGISSAESLKISQAVHAAHAEINEAGREVVGSAEAGVDAASVSEEFRADHPFLFCIKHIATNAVLFFGRCVSP
B3: Gal d 3: native allergen component from Phadia (Conalbumin, Egg, white) (protein, UniProt P02789 20-705, looked up)
Ovotransferrin: APPKSVIRWCTISSPEEKKCNNLRDLTQQERISLTCVQKATYLDCIKAIANNEADAISLDGGQAFEAGLAPYKLKPIAAEVYEHTEGSTTSYYAVAVVKKGTEFTVNDLQGKTSCHTGLGRSAGWNIPIGTLLHRGAIEWEGIESGSVEQAVAKFFSASCVPGATIEQKLCRQCKGDPKTKCARNAPYSGYSGAFHCLKDGKGDVAFVKHTTVNENAPDQKDEYELLCLDGSRQPVDNYKTCNWARVAAHAVVARDDNKVEDIWSFLSKAQSDFGVDTKSDFHLFGPPGKKDPVLKDLLFKDSAIMLKRVPSLMDSQLYLGFEYYSAIQSMRKDQLTPSPRENRIQWCAVGKDEKSKCDRWSVVSNGDVECTVVDETKDCIIKIMKGEADAVALDGGLVYTAGVCGLVPVMAERYDDESQCSKTDERPASYFAVAVARKDSNVNWNNLKGKKSCHTAVGRTAGWVIPMGLIHNRTGTCNFDEYFSEGCAPGSPPNSRLCQLCQGSGGIPPEKCVASSHEKYFGYTGALRCLVEKGDVAFIQHSTVEENTGGKNKADWAKNLQMDDFELLCTDGRRANVMDYRECNLAEVPTHAVVVRPEKANKIRDLLERQEKRFGVNGSEKSKFMMFESQNKDLLFKDLTKCLFKVREGTTYKEFLGDKFYTVISSLKTCNPSDILQMCSFLEGK
B4: Alt a 1: native allergen component from Phadia (Alternaria) (protein, UniProt P79085 19-157, looked up)
Major allergen Alt a 1: APLESRQDTASCPVTTEGDYVWKISEFYGRKPEGTYYNSLGFNIKATNGGTLDFTCSAQADKLEDHKWYSCGENSFMDFSFDSDRSGLLLKQKVSDDITYVATATLPNYCRAGGNGPKDFVCQGVADAYITLVTLPKSS

Key:
[1] = system: MM6-cells; assay: CPA: IL-10 levels of stimulated MM6 cells, ELISA; assay type: cell-based, human; conditions: 25-200 μg/ml; 48 hours; with IFN-γ 100 U/ml
From the text: (§1) The instructions of the manufacturers were followed. All these tests are enzyme immunoassays (EIA:s). The principle is that microtiter plate wells are labelled with a cytokine specific capture antibody. If cytokine is present in the samples added to the wells it will be captured to the bottom of the well. […] The reaction is thereafter measured as colour developed after addition of a substrate for the enzyme. The values for the test wells are compared with a standard curve obtained by adding a series of known amounts of cytokine. The values obtained for control wells with no substance added are used as background values for cytokine levels.
(§2) The myelomonocytic cell line MonoMac-6 (obtained from DSMZ, accession number ACC 124, Prof. H. W. L. Ziegler-Heitbrock, Inst. For Immunology, University of Munich, Munich) was cultured in cell culture flasks (Corning). Cells were cultured in RPMI 1640 medium (Gibco BRL), containing 20 mM HEPES and L-glutamine and supplemented with 10% heat-inactivated foetal bovine serum (Gibco BRL), penicillin (100 U/mL; Sigma-Aldrich), streptomycin (100 μg/mL; Sigma-Aldrich), sodium pyruvate (1.0 mM;Gibco BRL), human insulin (9 μg/mL; Gibco BRL) and non-essential amino acids (Gibco BRL) or cultured in Panserin 411 (Pan Biotech) supplemented with penicillin (100 U/mL), streptomycin (100 μg/mL).
The cells were split approximately 1:3 the day before stimulation. The stimulation procedure was performed in three steps. The first step was pre-dilution of test substances, to double the final concentration, in cell culture medium. […] The number of cells was then determined by trypan blue exclusion and the cells were diluted to twice the final test concentration (2×10^6 cells/mL) if not otherwise indicated and 100 μl of cell suspension was added per well in 96 well tissue culture plates (Corning). […] The cell suspension was transferred to new cell culture plates and stored at −20° C. until analyzed. Thereafter the cell suspension was analyzed for presence of neopterin and IL-10 by ELISA (IBL-Hamburg) following the manufacturers instructions.

[2] = system: MonoMac-6 cells; assay: Cytokine Profile Assay (CPA): neopterin production by stimulated MonoMac-6 cells, ELISA; assay type: cell-based, human; conditions: with IFN-γ 100 U/ml
From the text: as §1, §2
The cells were split approximately 1:3 the day before stimulation. The stimulation procedure was performed in three steps. The first step was pre-dilution of test substances, to double the final concentration, in cell culture medium. Furthermore, Interferon-γ (IFN-γ) (100 U, PreproTech) was added in the cell culture media for 24 or 48 hours during stimulation of cells with test substances. The number of cells was then determined by trypan blue exclusion and the cells were diluted to twice the final test concentration (2×10^6 cells/mL) if not otherwise indicated and 100 μl of cell suspension was added per well in 96 well tissue culture plates (Corning). Finally, a 100 μl of pre-diluted test substance (triplicate cultures) was added to the tissue culture plates. […] The stimulated cells were cultured at 37° C., 5% CO2, for 24 or 48 hours. The cell suspension was transferred to new cell culture plates and stored at −20° C. until analyzed. Thereafter the cell suspension was analyzed for presence of neopterin and IL-10 by ELISA (IBL-Hamburg) following the manufacturers instructions.

[3] = serum free Panserin media, 48 hrs

Molecule | IL-10 levels (in words) [1] | neopterin response (in words) [2, 3] | neopterin response (in words) ([2]; proteins, RPMI+10% FCS, 24 hrs, over the tested concentrations) | neopterin response (in words) ([2]; serum free Panserin media, 24 hrs)
B1 | induced increased IL-10 levels in a dose dependent manner |  |  | 
B2 | induced increased IL-10 levels in a dose dependent manner | increased in a dose dependent manner |  | 
B3 |  | increased in a dose dependent manner |  | 
B4 | induced increased IL-10 levels in a dose dependent manner | increased in a dose dependent manner | increased in a dose dependent manner | increased in a dose dependent manner

Source: patent US20110053163A1, “Biomarker” (BIOVATOR TECHNOLOGIES AB, priority 2007, published 2011)
